The results in this text go back to patent US20150344570A1 (published 2015).

This assay has as its target T1, FcγRIa (human, UniProt P12314 16-292).
T1 construct: extracellular domain; also called FcgRI; 1a
As to the kind of experiment: SPR (Biacore); Ho Ab relative to HoCon Ab = 100. On the procedure:
Analysis of interaction between objective antibody and the FcγR was carried out using Biacore T100 (GE Healthcare). HBS-EP+ (GE Healthcare) was used as the running buffer, and the measurement temperature was set to 25° C. Chips produced by immobilizing the antigen peptide by the amine coupling method to a Series S Sencor Chip CM5 (GE Healthcare), or alternatively, chips produced by allowing preliminarily biotinylated antigen peptides to interact with and immobilize onto a Series S Sensor Chip SA (certified) (GE Healthcare) were used. Antibodies of interest were captured onto an antigen peptide-immobilized chip, and allowed to interact to each FcγR diluted with running buffer. To regenerate and repeatedly use the chip, the antibodies captured on the chip were washed off by reacting 10 mM glycine-HCl, pH 1.5.

T1 sequence (P12314 16-292): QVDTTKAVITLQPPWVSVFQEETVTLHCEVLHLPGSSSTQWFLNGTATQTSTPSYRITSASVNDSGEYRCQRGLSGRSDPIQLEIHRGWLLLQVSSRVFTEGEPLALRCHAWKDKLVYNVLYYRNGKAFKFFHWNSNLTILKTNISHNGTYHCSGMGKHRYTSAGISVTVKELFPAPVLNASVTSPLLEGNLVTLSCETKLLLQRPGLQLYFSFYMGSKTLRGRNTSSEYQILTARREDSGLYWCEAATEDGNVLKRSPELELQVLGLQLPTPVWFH

B1: GpH7-B3 variant E333_16H/GpL16-k0 (antibody, human IgG1, kappa)
heavy: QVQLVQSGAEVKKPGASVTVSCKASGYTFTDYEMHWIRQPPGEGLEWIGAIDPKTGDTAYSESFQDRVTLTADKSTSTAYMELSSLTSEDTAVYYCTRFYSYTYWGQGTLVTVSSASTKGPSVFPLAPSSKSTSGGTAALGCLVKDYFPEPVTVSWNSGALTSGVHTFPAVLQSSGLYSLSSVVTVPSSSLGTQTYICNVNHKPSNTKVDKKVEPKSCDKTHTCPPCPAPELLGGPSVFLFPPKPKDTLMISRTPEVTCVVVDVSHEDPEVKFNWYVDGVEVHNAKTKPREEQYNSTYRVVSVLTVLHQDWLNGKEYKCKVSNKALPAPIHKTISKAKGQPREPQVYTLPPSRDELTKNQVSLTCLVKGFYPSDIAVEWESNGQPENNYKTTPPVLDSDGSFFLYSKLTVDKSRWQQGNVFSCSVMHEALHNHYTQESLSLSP
light: DIVMTQSPLSLPVTPGEPASISCQASESLVHSNRNTYLHWYLQKPGQSPQLLIYKVSNRFSGVPDRFSGSGSGTDFTLKISRVEAEDVGVYYCSQNTHVPPTFGQGTKVEIERTVAAPSVFIFPPSDEQLKSGTASVVCLLNNFYPREAKVQWKVDNALQSGNSQESVTEQDSKDSTYSLSSTLTLSKADYEKHKVYACEVTHQGLSSPVTKSFNRGEC
notes: also called Ho Ab E333_16H
On to B1, for which the Ho/Con_1a is 99.1 % of control.

B2: GpH7-B3 variant I336_02A/GpL16-k0 (antibody, human IgG1, kappa)
heavy: not shown
light: DIVMTQSPLSLPVTPGEPASISCQASESLVHSNRNTYLHWYLQKPGQSPQLLIYKVSNRFSGVPDRFSGSGSGTDFTLKISRVEAEDVGVYYCSQNTHVPPTFGQGTKVEIERTVAAPSVFIFPPSDEQLKSGTASVVCLLNNFYPREAKVQWKVDNALQSGNSQESVTEQDSKDSTYSLSSTLTLSKADYEKHKVYACEVTHQGLSSPVTKSFNRGEC
notes: also called Ho Ab I336_02A
B2: the Ho/Con_1a was 103 % of control.

B3: GpH7-B3 variant I336_18N/GpL16-k0 (antibody, human IgG1, kappa)
heavy: not shown
light: DIVMTQSPLSLPVTPGEPASISCQASESLVHSNRNTYLHWYLQKPGQSPQLLIYKVSNRFSGVPDRFSGSGSGTDFTLKISRVEAEDVGVYYCSQNTHVPPTFGQGTKVEIERTVAAPSVFIFPPSDEQLKSGTASVVCLLNNFYPREAKVQWKVDNALQSGNSQESVTEQDSKDSTYSLSSTLTLSKADYEKHKVYACEVTHQGLSSPVTKSFNRGEC
notes: also called Ho Ab I336_18N
With B3, the Ho/Con_1a is 104 % of control.

B4: GpH7-B3 variant I332_12R/GpL16-k0 (antibody, human IgG1, kappa)
heavy: not shown
light: DIVMTQSPLSLPVTPGEPASISCQASESLVHSNRNTYLHWYLQKPGQSPQLLIYKVSNRFSGVPDRFSGSGSGTDFTLKISRVEAEDVGVYYCSQNTHVPPTFGQGTKVEIERTVAAPSVFIFPPSDEQLKSGTASVVCLLNNFYPREAKVQWKVDNALQSGNSQESVTEQDSKDSTYSLSSTLTLSKADYEKHKVYACEVTHQGLSSPVTKSFNRGEC
notes: also called Ho Ab I332_12R
In the case of B4, the Ho/Con_1a was 93.2 % of control.

B5: GpH7-B3 variant G236_20W/GpL16-k0 (antibody, human IgG1, kappa)
heavy: not shown
light: DIVMTQSPLSLPVTPGEPASISCQASESLVHSNRNTYLHWYLQKPGQSPQLLIYKVSNRFSGVPDRFSGSGSGTDFTLKISRVEAEDVGVYYCSQNTHVPPTFGQGTKVEIERTVAAPSVFIFPPSDEQLKSGTASVVCLLNNFYPREAKVQWKVDNALQSGNSQESVTEQDSKDSTYSLSSTLTLSKADYEKHKVYACEVTHQGLSSPVTKSFNRGEC
notes: also called Ho Ab G236_20W
For B5, the Ho/Con_1a is 104 % of control.

B6: GpH7-B3 variant H268_05P/GpL16-k0 (antibody, human IgG1, kappa)
heavy: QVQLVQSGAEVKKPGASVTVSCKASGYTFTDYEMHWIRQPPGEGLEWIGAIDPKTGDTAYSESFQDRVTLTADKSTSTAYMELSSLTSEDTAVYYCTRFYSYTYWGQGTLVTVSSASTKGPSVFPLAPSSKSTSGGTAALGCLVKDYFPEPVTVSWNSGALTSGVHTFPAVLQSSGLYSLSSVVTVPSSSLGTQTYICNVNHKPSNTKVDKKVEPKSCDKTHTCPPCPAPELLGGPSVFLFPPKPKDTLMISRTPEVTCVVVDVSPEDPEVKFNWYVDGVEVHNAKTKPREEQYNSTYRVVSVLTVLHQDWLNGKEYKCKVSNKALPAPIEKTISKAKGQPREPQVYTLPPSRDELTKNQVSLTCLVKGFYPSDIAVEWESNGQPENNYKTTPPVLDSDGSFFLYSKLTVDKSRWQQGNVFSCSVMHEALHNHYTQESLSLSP
light: DIVMTQSPLSLPVTPGEPASISCQASESLVHSNRNTYLHWYLQKPGQSPQLLIYKVSNRFSGVPDRFSGSGSGTDFTLKISRVEAEDVGVYYCSQNTHVPPTFGQGTKVEIERTVAAPSVFIFPPSDEQLKSGTASVVCLLNNFYPREAKVQWKVDNALQSGNSQESVTEQDSKDSTYSLSSTLTLSKADYEKHKVYACEVTHQGLSSPVTKSFNRGEC
notes: also called Ho Ab H268_05P
For the molecule B6, the Ho/Con_1a is 108 % of control.

B7: GpH7-B3 variant H268_07I/GpL16-k0 (antibody, human IgG1, kappa)
heavy: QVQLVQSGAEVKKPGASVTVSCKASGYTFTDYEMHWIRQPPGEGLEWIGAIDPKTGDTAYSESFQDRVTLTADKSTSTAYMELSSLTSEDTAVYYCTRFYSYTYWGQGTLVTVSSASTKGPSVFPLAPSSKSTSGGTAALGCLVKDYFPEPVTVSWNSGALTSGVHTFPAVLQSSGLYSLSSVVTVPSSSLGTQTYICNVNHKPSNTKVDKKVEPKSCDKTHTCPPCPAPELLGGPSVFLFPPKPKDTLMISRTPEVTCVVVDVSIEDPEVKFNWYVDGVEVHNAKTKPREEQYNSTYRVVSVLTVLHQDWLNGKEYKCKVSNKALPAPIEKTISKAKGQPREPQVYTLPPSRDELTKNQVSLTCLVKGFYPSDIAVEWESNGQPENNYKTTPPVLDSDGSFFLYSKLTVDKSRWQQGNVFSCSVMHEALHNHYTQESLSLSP
light: DIVMTQSPLSLPVTPGEPASISCQASESLVHSNRNTYLHWYLQKPGQSPQLLIYKVSNRFSGVPDRFSGSGSGTDFTLKISRVEAEDVGVYYCSQNTHVPPTFGQGTKVEIERTVAAPSVFIFPPSDEQLKSGTASVVCLLNNFYPREAKVQWKVDNALQSGNSQESVTEQDSKDSTYSLSSTLTLSKADYEKHKVYACEVTHQGLSSPVTKSFNRGEC
notes: also called Ho Ab H268_07I
On to B7, for which the Ho/Con_1a is 106 % of control.

B8: GpH7-B3 variant I336_10E/GpL16-k0 (antibody, human IgG1, kappa)
heavy: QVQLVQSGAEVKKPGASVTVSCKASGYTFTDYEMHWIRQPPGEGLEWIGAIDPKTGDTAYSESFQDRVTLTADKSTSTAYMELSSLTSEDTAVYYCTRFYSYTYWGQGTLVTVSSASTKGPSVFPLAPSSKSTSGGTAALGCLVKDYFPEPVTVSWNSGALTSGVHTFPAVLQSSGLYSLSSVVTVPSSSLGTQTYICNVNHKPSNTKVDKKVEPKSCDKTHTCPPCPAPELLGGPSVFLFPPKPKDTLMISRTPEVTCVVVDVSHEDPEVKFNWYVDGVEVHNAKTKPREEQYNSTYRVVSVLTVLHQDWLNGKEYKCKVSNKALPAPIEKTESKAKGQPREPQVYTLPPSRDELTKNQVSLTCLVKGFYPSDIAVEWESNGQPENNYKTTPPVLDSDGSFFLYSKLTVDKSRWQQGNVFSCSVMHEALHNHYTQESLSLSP
light: DIVMTQSPLSLPVTPGEPASISCQASESLVHSNRNTYLHWYLQKPGQSPQLLIYKVSNRFSGVPDRFSGSGSGTDFTLKISRVEAEDVGVYYCSQNTHVPPTFGQGTKVEIERTVAAPSVFIFPPSDEQLKSGTASVVCLLNNFYPREAKVQWKVDNALQSGNSQESVTEQDSKDSTYSLSSTLTLSKADYEKHKVYACEVTHQGLSSPVTKSFNRGEC
notes: also called Ho Ab I336_10E
Regarding B8, the Ho/Con_1a is 107 % of control.

B9: GpH7-B3 variant G236_02A/GpL16-k0 (antibody, human IgG1, kappa)
heavy: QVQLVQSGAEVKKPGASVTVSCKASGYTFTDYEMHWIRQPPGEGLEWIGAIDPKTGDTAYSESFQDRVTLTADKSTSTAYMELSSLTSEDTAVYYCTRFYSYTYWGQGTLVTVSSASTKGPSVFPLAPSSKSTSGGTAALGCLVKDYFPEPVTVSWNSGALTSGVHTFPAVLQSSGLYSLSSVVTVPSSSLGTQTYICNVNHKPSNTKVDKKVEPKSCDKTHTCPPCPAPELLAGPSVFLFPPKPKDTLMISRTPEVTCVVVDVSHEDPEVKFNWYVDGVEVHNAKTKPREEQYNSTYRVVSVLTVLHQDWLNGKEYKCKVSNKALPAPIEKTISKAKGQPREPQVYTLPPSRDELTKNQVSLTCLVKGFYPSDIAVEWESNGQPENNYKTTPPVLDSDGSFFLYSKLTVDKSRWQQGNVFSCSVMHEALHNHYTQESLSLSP
light: DIVMTQSPLSLPVTPGEPASISCQASESLVHSNRNTYLHWYLQKPGQSPQLLIYKVSNRFSGVPDRFSGSGSGTDFTLKISRVEAEDVGVYYCSQNTHVPPTFGQGTKVEIERTVAAPSVFIFPPSDEQLKSGTASVVCLLNNFYPREAKVQWKVDNALQSGNSQESVTEQDSKDSTYSLSSTLTLSKADYEKHKVYACEVTHQGLSSPVTKSFNRGEC
notes: also called Ho Ab G236_02A
For B9, the Ho/Con_1a was 92.4 % of control.

B10: GpH7-B3 variant H268_14T/GpL16-k0 (antibody, human IgG1, kappa)
heavy: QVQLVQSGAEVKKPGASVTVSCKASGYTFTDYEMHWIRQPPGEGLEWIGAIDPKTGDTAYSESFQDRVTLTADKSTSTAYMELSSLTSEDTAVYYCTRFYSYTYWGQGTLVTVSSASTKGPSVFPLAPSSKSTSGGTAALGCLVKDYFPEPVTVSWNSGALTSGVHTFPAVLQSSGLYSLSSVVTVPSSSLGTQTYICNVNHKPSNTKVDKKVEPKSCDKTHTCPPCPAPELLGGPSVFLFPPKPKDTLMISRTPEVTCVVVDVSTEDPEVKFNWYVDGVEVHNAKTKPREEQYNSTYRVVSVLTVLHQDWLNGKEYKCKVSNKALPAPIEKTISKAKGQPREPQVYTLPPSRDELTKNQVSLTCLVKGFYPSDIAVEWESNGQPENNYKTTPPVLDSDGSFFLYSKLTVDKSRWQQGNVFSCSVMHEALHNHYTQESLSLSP
light: DIVMTQSPLSLPVTPGEPASISCQASESLVHSNRNTYLHWYLQKPGQSPQLLIYKVSNRFSGVPDRFSGSGSGTDFTLKISRVEAEDVGVYYCSQNTHVPPTFGQGTKVEIERTVAAPSVFIFPPSDEQLKSGTASVVCLLNNFYPREAKVQWKVDNALQSGNSQESVTEQDSKDSTYSLSSTLTLSKADYEKHKVYACEVTHQGLSSPVTKSFNRGEC
notes: also called Ho Ab H268_14T
As for B10, the Ho/Con_1a was 109 % of control.

B11: GpH7-B3 variant I336_01G/GpL16-k0 (antibody, human IgG1, kappa)
heavy: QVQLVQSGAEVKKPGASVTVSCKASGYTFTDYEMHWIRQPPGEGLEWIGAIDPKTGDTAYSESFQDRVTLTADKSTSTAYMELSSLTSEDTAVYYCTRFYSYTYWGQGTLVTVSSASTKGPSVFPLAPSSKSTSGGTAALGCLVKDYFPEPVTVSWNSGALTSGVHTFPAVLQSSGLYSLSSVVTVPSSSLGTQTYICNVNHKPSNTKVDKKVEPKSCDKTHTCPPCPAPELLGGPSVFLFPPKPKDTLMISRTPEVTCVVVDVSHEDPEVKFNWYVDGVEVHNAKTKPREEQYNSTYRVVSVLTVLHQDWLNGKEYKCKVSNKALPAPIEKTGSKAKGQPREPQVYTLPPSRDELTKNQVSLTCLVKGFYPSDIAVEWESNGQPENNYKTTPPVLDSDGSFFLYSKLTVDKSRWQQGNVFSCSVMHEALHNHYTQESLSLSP
light: DIVMTQSPLSLPVTPGEPASISCQASESLVHSNRNTYLHWYLQKPGQSPQLLIYKVSNRFSGVPDRFSGSGSGTDFTLKISRVEAEDVGVYYCSQNTHVPPTFGQGTKVEIERTVAAPSVFIFPPSDEQLKSGTASVVCLLNNFYPREAKVQWKVDNALQSGNSQESVTEQDSKDSTYSLSSTLTLSKADYEKHKVYACEVTHQGLSSPVTKSFNRGEC
notes: also called Ho Ab I336_01G
For B11, the Ho/Con_1a was 104 % of control.

B12: GpH7-B3 variant K326_14T/GpL16-k0 (antibody, human IgG1, kappa)
heavy: not shown
light: DIVMTQSPLSLPVTPGEPASISCQASESLVHSNRNTYLHWYLQKPGQSPQLLIYKVSNRFSGVPDRFSGSGSGTDFTLKISRVEAEDVGVYYCSQNTHVPPTFGQGTKVEIERTVAAPSVFIFPPSDEQLKSGTASVVCLLNNFYPREAKVQWKVDNALQSGNSQESVTEQDSKDSTYSLSSTLTLSKADYEKHKVYACEVTHQGLSSPVTKSFNRGEC
notes: also called Ho Ab K326_14T
B12: the Ho/Con_1a was 103 % of control.

B13: GpH7-B3 variant H268_20W/GpL16-k0 (antibody, human IgG1, kappa)
heavy: not shown
light: DIVMTQSPLSLPVTPGEPASISCQASESLVHSNRNTYLHWYLQKPGQSPQLLIYKVSNRFSGVPDRFSGSGSGTDFTLKISRVEAEDVGVYYCSQNTHVPPTFGQGTKVEIERTVAAPSVFIFPPSDEQLKSGTASVVCLLNNFYPREAKVQWKVDNALQSGNSQESVTEQDSKDSTYSLSSTLTLSKADYEKHKVYACEVTHQGLSSPVTKSFNRGEC
notes: also called Ho Ab H268_20W
On to B13, for which the Ho/Con_1a was 106 % of control.

B14: GpH7-B3 variant K326_12R/GpL16-k0 (antibody, human IgG1, kappa)
heavy: not shown
light: DIVMTQSPLSLPVTPGEPASISCQASESLVHSNRNTYLHWYLQKPGQSPQLLIYKVSNRFSGVPDRFSGSGSGTDFTLKISRVEAEDVGVYYCSQNTHVPPTFGQGTKVEIERTVAAPSVFIFPPSDEQLKSGTASVVCLLNNFYPREAKVQWKVDNALQSGNSQESVTEQDSKDSTYSLSSTLTLSKADYEKHKVYACEVTHQGLSSPVTKSFNRGEC
notes: also called Ho Ab K326_12R
In the case of B14, the Ho/Con_1a is 100 % of control.

B15: GpH7-B3 variant I336_06M/GpL16-k0 (antibody, human IgG1, kappa)
heavy: not shown
light: DIVMTQSPLSLPVTPGEPASISCQASESLVHSNRNTYLHWYLQKPGQSPQLLIYKVSNRFSGVPDRFSGSGSGTDFTLKISRVEAEDVGVYYCSQNTHVPPTFGQGTKVEIERTVAAPSVFIFPPSDEQLKSGTASVVCLLNNFYPREAKVQWKVDNALQSGNSQESVTEQDSKDSTYSLSSTLTLSKADYEKHKVYACEVTHQGLSSPVTKSFNRGEC
notes: also called Ho Ab I336_06M
Turning to B15, the Ho/Con_1a was 104 % of control.

B16: GpH7-B3 variant K326_15Y/GpL16-k0 (antibody, human IgG1, kappa)
heavy: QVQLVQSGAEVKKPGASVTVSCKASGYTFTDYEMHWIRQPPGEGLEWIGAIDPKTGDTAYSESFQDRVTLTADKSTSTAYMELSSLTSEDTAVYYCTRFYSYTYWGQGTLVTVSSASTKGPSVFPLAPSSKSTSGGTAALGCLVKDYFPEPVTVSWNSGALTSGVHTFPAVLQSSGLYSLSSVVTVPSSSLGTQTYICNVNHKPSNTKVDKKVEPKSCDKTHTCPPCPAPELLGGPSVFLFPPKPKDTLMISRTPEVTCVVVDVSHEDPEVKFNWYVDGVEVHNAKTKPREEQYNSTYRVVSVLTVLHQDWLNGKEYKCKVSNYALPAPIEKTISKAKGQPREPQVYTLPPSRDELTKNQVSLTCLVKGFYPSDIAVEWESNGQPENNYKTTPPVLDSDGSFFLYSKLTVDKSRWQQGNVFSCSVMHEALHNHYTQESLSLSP
light: DIVMTQSPLSLPVTPGEPASISCQASESLVHSNRNTYLHWYLQKPGQSPQLLIYKVSNRFSGVPDRFSGSGSGTDFTLKISRVEAEDVGVYYCSQNTHVPPTFGQGTKVEIERTVAAPSVFIFPPSDEQLKSGTASVVCLLNNFYPREAKVQWKVDNALQSGNSQESVTEQDSKDSTYSLSSTLTLSKADYEKHKVYACEVTHQGLSSPVTKSFNRGEC
notes: also called Ho Ab K326_15Y
As for B16, the Ho/Con_1a is 101 % of control.

B17: GpH7-B3 variant I336_03V/GpL16-k0 (antibody, human IgG1, kappa)
heavy: not shown
light: DIVMTQSPLSLPVTPGEPASISCQASESLVHSNRNTYLHWYLQKPGQSPQLLIYKVSNRFSGVPDRFSGSGSGTDFTLKISRVEAEDVGVYYCSQNTHVPPTFGQGTKVEIERTVAAPSVFIFPPSDEQLKSGTASVVCLLNNFYPREAKVQWKVDNALQSGNSQESVTEQDSKDSTYSLSSTLTLSKADYEKHKVYACEVTHQGLSSPVTKSFNRGEC
notes: also called Ho Ab I336_03V
With B17, the Ho/Con_1a was 105 % of control.

B18: GpH7-B3 variant H268_08L/GpL16-k0 (antibody, human IgG1, kappa)
heavy: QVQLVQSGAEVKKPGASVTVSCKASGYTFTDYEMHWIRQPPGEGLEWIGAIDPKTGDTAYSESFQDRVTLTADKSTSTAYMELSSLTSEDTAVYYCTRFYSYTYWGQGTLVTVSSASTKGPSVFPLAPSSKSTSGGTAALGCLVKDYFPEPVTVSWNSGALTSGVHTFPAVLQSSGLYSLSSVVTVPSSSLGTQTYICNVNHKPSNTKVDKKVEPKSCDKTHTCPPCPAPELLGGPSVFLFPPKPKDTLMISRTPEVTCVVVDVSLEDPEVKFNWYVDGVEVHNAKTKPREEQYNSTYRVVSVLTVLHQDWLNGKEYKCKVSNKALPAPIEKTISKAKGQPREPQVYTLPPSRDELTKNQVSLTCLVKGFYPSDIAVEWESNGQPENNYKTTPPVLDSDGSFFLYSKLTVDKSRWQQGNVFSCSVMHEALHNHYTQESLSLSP
light: DIVMTQSPLSLPVTPGEPASISCQASESLVHSNRNTYLHWYLQKPGQSPQLLIYKVSNRFSGVPDRFSGSGSGTDFTLKISRVEAEDVGVYYCSQNTHVPPTFGQGTKVEIERTVAAPSVFIFPPSDEQLKSGTASVVCLLNNFYPREAKVQWKVDNALQSGNSQESVTEQDSKDSTYSLSSTLTLSKADYEKHKVYACEVTHQGLSSPVTKSFNRGEC
notes: also called Ho Ab H268_08L
Consider B18, for which the Ho/Con_1a is 105 % of control.

B19: GpH7-B3 variant H268_02A/GpL16-k0 (antibody, human IgG1, kappa)
heavy: not shown
light: DIVMTQSPLSLPVTPGEPASISCQASESLVHSNRNTYLHWYLQKPGQSPQLLIYKVSNRFSGVPDRFSGSGSGTDFTLKISRVEAEDVGVYYCSQNTHVPPTFGQGTKVEIERTVAAPSVFIFPPSDEQLKSGTASVVCLLNNFYPREAKVQWKVDNALQSGNSQESVTEQDSKDSTYSLSSTLTLSKADYEKHKVYACEVTHQGLSSPVTKSFNRGEC
notes: also called Ho Ab H268_02A
Turning to B19, the Ho/Con_1a was 106 % of control.

B20: GpH7-B3 variant H268_12R/GpL16-k0 (antibody, human IgG1, kappa)
heavy: not shown
light: DIVMTQSPLSLPVTPGEPASISCQASESLVHSNRNTYLHWYLQKPGQSPQLLIYKVSNRFSGVPDRFSGSGSGTDFTLKISRVEAEDVGVYYCSQNTHVPPTFGQGTKVEIERTVAAPSVFIFPPSDEQLKSGTASVVCLLNNFYPREAKVQWKVDNALQSGNSQESVTEQDSKDSTYSLSSTLTLSKADYEKHKVYACEVTHQGLSSPVTKSFNRGEC
notes: also called Ho Ab H268_12R
Turning to B20, the Ho/Con_1a is 105 % of control.

B21: GpH7-B3 variant I336_04F/GpL16-k0 (antibody, human IgG1, kappa)
heavy: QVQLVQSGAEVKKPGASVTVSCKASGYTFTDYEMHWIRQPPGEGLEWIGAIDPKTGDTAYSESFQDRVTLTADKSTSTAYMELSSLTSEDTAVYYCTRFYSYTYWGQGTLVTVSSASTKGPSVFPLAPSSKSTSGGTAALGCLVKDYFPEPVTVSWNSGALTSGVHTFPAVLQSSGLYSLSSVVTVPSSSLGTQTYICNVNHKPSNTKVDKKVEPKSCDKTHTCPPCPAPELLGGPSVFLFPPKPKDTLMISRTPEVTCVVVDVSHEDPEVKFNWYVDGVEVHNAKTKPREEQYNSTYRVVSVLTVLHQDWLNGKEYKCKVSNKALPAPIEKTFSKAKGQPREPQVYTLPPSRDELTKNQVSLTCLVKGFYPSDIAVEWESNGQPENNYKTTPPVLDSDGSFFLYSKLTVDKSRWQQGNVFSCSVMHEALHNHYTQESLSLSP
light: DIVMTQSPLSLPVTPGEPASISCQASESLVHSNRNTYLHWYLQKPGQSPQLLIYKVSNRFSGVPDRFSGSGSGTDFTLKISRVEAEDVGVYYCSQNTHVPPTFGQGTKVEIERTVAAPSVFIFPPSDEQLKSGTASVVCLLNNFYPREAKVQWKVDNALQSGNSQESVTEQDSKDSTYSLSSTLTLSKADYEKHKVYACEVTHQGLSSPVTKSFNRGEC
notes: also called Ho Ab I336_04F
Regarding B21, the Ho/Con_1a was 104 % of control.
